± gives the uncertainty stated by the source.

The nature of the data set: amyloid nucleation score (Sup35N fusion, yeast selection) (log enrichment); library NNK1; higher = more nucleation; inactive = no reads after selection. In a few lines: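 In psi-negative yeast, Sup35N fusions carrying peptides of 20 random codons were induced with 100 μM copper sulfate for 24 hours. The cells then grew 7 days at 30°C on medium lacking adenine and uracil, and plasmid inserts from input and output were Illumina-sequenced, excluding sequences with under 100 input reads. Nucleation score is the DiMSum log enrichment of output over input reads, centred on the mode score of non-aggregating sequences.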
In the case of CLWGILDEGRFGSWFNNFAS, the amyloid nucleation score turned out to be 0.467 ± 0.9.
In turn, CLYWFLKEHFC showed an amyloid nucleation score of 1.06 ± 0.78.
Under CMDRSLMVNNTRPYGCLLEY stands 6 ± 0.061; under CMMSNRTCQAQLVMMWEMW, “inactive”.
Take CMNSMC: the amyloid nucleation score came out at 0.066 ± 0.66.
In turn, CMSVETLTEMVYFKSYTL returned an amyloid nucleation score of 0.257 ± 0.42.
The substance CNFLLATWRRLKYTSQYLKS came in with an amyloid nucleation score of -0.073 ± 0.69.
Under CNFSQYMRVHHTSYLEPTDH stands 3.22 ± 0.12.
For CNICNPI, the amyloid nucleation score was -0.585 ± 1.6.
For the substance CNNSSGRVVRLCSMDGGLLG, the amyloid nucleation score was -0.021 ± 0.65.
CNTPSTCNCVIVRPSYPSQY yielded an amyloid nucleation score of -0.088 ± 0.61.
Under CNVGLKVYLADISSGSVCYL stands 4.39 ± 0.075; under CPGFFILVQCIVYMDTDCGF, 3.81 ± 0.095; under CPMEKSGVELDV, 0.094 ± 0.41.
CPNIEKPSLLST returned an amyloid nucleation score of -2.01 ± 2.4.
Turning to CPVGQTNCQDL, the amyloid nucleation score was found to be 0.072 ± 0.51.
For the substance CPWRNRII, the amyloid nucleation score was 0.684 ± 0.6.
Under CQSFIGTDTKFVIPDMVLAA stands “inactive”.
Consider CQVPSGESNDSPVLRHI, for which the amyloid nucleation score is -0.138 ± 0.43.
Under CQVVLISWTGSHKGNLEHNA stands 1.08 ± 0.3.
Consider CQYMFHIWQLIANHVI, for which the amyloid nucleation score came out at 0.799 ± 0.43.
For CRDNCCPLVVYW, the amyloid nucleation score was 0.531 ± 0.33.
Next, CRDRRS: 1.91 ± 0.35.
Next, CRFMNVRYGKRMKVDNTVMA: -0.891 ± 1.4; CRFPCSCHRWSMIRSVVCKR: 0.03 ± 0.97; CRLSTS: -0.966 ± 0.42.
Substance CRSSGADSRLLNIVKPCTLP came in with an amyloid nucleation score of -0.616 ± 0.33.
CRTVAHFRP registered an amyloid nucleation score of 0.481 ± 0.61.
CSAKNLYVTTQFSLVLFVGS: the amyloid nucleation score was 6.422 ± 0.052.
In turn, CSDKKLGEWSASWNCNRDRM gave an amyloid nucleation score of -0.171 ± 1.7.
Under CSGNI stands -1.32 ± 1.7; under CSIVYCMCGLCAS, 8.43 ± 0.055; under CSNRWYVNMFVHWIFVHLGS, 1.47 ± 0.53.
Next, CSPLVGMTGAMLTVRGSISR: 0.019 ± 1.
In turn, CSRNTSVA returned an amyloid nucleation score of 1.01 ± 0.57.
Next, CSRRFYESPCKEPAA: 0.145 ± 0.43; CSTQRVPGGGLGKSWL: 0.18 ± 1.2.
Take CSTRLSSKFSDTIYVEVFSF: the amyloid nucleation score entry was “inactive”.
CSTTLEVTVGMAVVMLLQGI: the amyloid nucleation score was found to be 2.66 ± 0.086.
Substance CSWVTPNGRVLHCLTNLYYY came in with an amyloid nucleation score of 0.297 ± 0.59.
CSYPHIDIAPRSACPTWTQD had an amyloid nucleation score of 0.432 ± 0.72.
Next, CTARLIA: 0.13 ± 0.28.
Under CTDPFQDLTRELLLLVCIGL stands -0.201 ± 0.65; under CTFKAWRLYSVNKDSRIVLK, -0.576 ± 1.1.
As to CTSLDFSNKVRCVMGQSVLL, the amyloid nucleation score is -0.606 ± 0.97.
On to CVAGLVDGKRKNVIRKWFWN, for which the amyloid nucleation score was 0.049 ± 0.44.
For the substance CVARIDCEWIKPLSLHCSCT, the amyloid nucleation score was -0.499 ± 1.3.
Under CVFRSYQWWSSHLYFVNVCN stands 0.667 ± 0.68; under CVFYASTYVIPYNCENNFTI, 0.952 ± 0.26; under CVFYCRR, 0.091 ± 1.1.
On to CVFYISINCYFIWVRLDWVY, for which the amyloid nucleation score result was “inactive”.
Turning to CVKRLLPVYWWGESG, the amyloid nucleation score turned out to be 0.123 ± 0.91.
Next, CVMYSRGFYCADCVCNLMPC: 4.85 ± 0.053.
Substance CVPPRVRCRFEL gave an amyloid nucleation score of 0.792 ± 0.46.
Regarding CVSATRV, the amyloid nucleation score amounted to 0.042 ± 0.48.
Next, CVSPSVTNFAELVSIVISPS: 0.652 ± 0.66.
CVTLCSDVSYSTYNWLPFIR yielded an amyloid nucleation score of 0.834 ± 0.44.
For CVYGGIFYRTGYLYFEVYFY, the amyloid nucleation score worked out at 0.134 ± 0.31.

These data come from the supplement of paper PMC12042874.
